From the supplement of paper PMC9942255 come the findings set out here.

The subject of this series is Bacillus subtilis DB104 (SP-AmyQ fusion secretion). The series can be described thus: AmyQ secretion efficiency, weighted average sort bin (1 = best secretion, 10 = worst) (bin number (weighted average, 1-10)); higher = lower secretion efficiency. Summed up: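 With fluorescein-starch as substrate, a B. subtilis DB104 library expressing mature AmyQ fused to designed signal peptides (integrated at amyE) was encapsulated at about 0.3 cells per ~65 nL alginate bead. After about 13 h at room temperature, beads were nile red stained, and occupied beads were sorted by large-particle flow cytometry into 10 equally populated bins by green/red fluorescence ratio. Illumina sequencing of the amplicons in each bin was used to calculate the secretion score, which is the read-frequency-weighted average bin number, normalised to beads per bin, with low-abundance sequences left out.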

On to MKRLLSSLAISALSLGLLVSAPTASFAAES, for which the AmyQ secretion efficiency was 2.75.

Sequence MKRLLSTLLIGIMLLEDEPSAFAKQD showed an AmyQ secretion efficiency of 1.9.

In turn, MKRLLSTLLIGIMLLEQQPKAFAKQD displayed an AmyQ secretion efficiency of 1.64.

The sequence MKRLLSTLLIGIMLLFFAGVAFAKQD came in with an AmyQ secretion efficiency of 3.63.

With MKRLLSTLLIGIMLLFFIFFTFAPSAFAKQD, the AmyQ secretion efficiency came out at 1.97.

With MKRLLSTLLIGIMLLITTILVSTLTFAPSAFAKQD, the AmyQ secretion efficiency was 1.3.

The sequence MKRLLSTLLIGIMLLKRKRRRAFAKQD displayed an AmyQ secretion efficiency of 8.09.

Sequence MKRLLSTLLIGIMLLPKAPSAFAKQD gave an AmyQ secretion efficiency of 2.61.

As to MKRLLSTLLIGIMLLTFAPSAFAAED, the AmyQ secretion efficiency amounted to 2.37.

Sequence MKRLLSTLLIGIMLLTFAPSAFAAQD displayed an AmyQ secretion efficiency of 1.6.

MKRLLSTLLIGIMLLTFAPSAFAAQK: the AmyQ secretion efficiency was determined as 1.73.

For MKRLLSTLLIGIMLLTFAPSAFAAQQ, the AmyQ secretion efficiency was determined as 1.25.

MKRLLSTLLIGIMLLTFAPSAFAKKR: the AmyQ secretion efficiency amounted to 2.03.

Consider MKRLLSTLLIGIMLLTFAPSAFCKQD, for which the AmyQ secretion efficiency is 2.6.

Consider MKRLLSTLLIGIMLLTFAPSAFGKQD, for which the AmyQ secretion efficiency worked out at 1.17.

MKRLLSTLLIGIMLLTFAPSAFWKQD returned an AmyQ secretion efficiency of 6.93.

MKRLLSTLLIGIMLLTFAPSCFAKQD: the AmyQ secretion efficiency amounted to 3.09.

For MKRLLSTLLIGIMLLTFAPSMFAKQD, the AmyQ secretion efficiency turned out to be 2.35.

In turn, MKRLLSTLLIGIMLLTFAPSPAATVFPVAFAKQD came in with an AmyQ secretion efficiency of 1.66.

As to MKRLLSTLLIGIMLLTFAPSSFAKQD, the AmyQ secretion efficiency turned out to be 2.65.

MKRLLSTLLIGIMLLTFAPSTFAKQD registered an AmyQ secretion efficiency of 1.72.

In turn, MKRLLSTLLIGIMLLTFAPSVFAKQD showed an AmyQ secretion efficiency of 1.93.

In turn, MKRLLSTLLIGIMLLVTFAPSAFAKQD showed an AmyQ secretion efficiency of 2.15.

Consider MKRLLSTLLIGITFAPSAFAKQD, for which the AmyQ secretion efficiency was 2.73.

MKRLLVSLRVWMPDRKTAAAAVY: the AmyQ secretion efficiency was 6.76.

In the case of MKRLLVSLRVWMVFLMNWVTPDRKTAAAAEE, the AmyQ secretion efficiency worked out at 6.3.

As to MKRLLVSLRVWMVFLMNWVTPDRKTAAAAKK, the AmyQ secretion efficiency stood at 7.3.

For MKRLLVSLRVWMVFLMNWVTPDRKTAAAAVD, the AmyQ secretion efficiency is 7.62.

MKRLLVSLRVWMVFLMNWVTPDRKTAAAAVY had an AmyQ secretion efficiency of 6.49.

Take MKRLLVSLRVWMVFLMNWVTPDRKTAAADED: the AmyQ secretion efficiency was determined as 6.67.

As for MKRLLVSLRVWMVFLMNWVTPDRKTAAARRK, the AmyQ secretion efficiency turned out to be 7.14.

As to MKRLLVSLRVWMVFLMNWVTPDRKTAADAVY, the AmyQ secretion efficiency worked out at 5.95.

For MKRLLVSLRVWMVFLMNWVTPDRKTAAGAVY, the AmyQ secretion efficiency stood at 7.15.

For the sequence MKRLLVSLRVWMVFLMNWVTPDRKTAAPAVY, the AmyQ secretion efficiency is 6.03.

MKRLLVSLRVWMVFLMNWVTPDRKTAARAVY: the AmyQ secretion efficiency was 5.96.

MKRLLVSLRVWMVFLMNWVTPDRKTAASAVY: the AmyQ secretion efficiency was 6.03.

Turning to MKRLLVSLRVWMVFLMNWVTPDRKTAAYAVY, the AmyQ secretion efficiency amounted to 7.68.

Turning to MKRLLVSLRVWMVFLMNWVTPDRKTDAAAVY, the AmyQ secretion efficiency is 6.85.

With MKRLLVSLRVWMVFLMNWVTPDRKTEAAAVY, the AmyQ secretion efficiency was 6.9.

Sequence MKRLLVSLRVWMVFLMNWVTPDRKTGAAAVY came in with an AmyQ secretion efficiency of 6.91.

Take MKRLLVSLRVWMVFLMNWVTPDRKTHAAAVY: the AmyQ secretion efficiency was found to be 6.55.

MKRLLVSLRVWMVFLMNWVTPDRKTKAAAVY displayed an AmyQ secretion efficiency of 7.79.

For the sequence MKRLLVSLRVWMVFLMNWVTPDRKTNAAAVY, the AmyQ secretion efficiency was 6.68.

Sequence MKRLLVSLRVWMVFLMNWVTPDRKTPAAAVY came in with an AmyQ secretion efficiency of 7.55.

In turn, MKRLLVSLRVWMVFLMNWVTPDRKTQAAAVY came in with an AmyQ secretion efficiency of 6.81.

Take MKRLLVSLRVWMVFLMNWVTPDRKTRAAAVY: the AmyQ secretion efficiency amounted to 6.54.

MKRLLVSLRVWMVFLMNWVTPDRKTSAAAVY: the AmyQ secretion efficiency amounted to 5.14.

Sequence MKRLLVSLRVWMVFLMNWVTPDRKTTPSGAAAAVY displayed an AmyQ secretion efficiency of 6.68.

In turn, MKRLLVSLRVWMVFLMNWVTPDRKTYAAAVY registered an AmyQ secretion efficiency of 6.89.

The sequence MKRLLVSLRVWMVFLMNWVTPKRKTAAAAVY showed an AmyQ secretion efficiency of 5.43.

Consider MKRLLVSLRVWMVFLMNWVTRKRRKKAAAAVY, for which the AmyQ secretion efficiency stood at 5.91.

Consider MKRLLVSLRVWMVFLMNWVTVGRKTAAAAVY, for which the AmyQ secretion efficiency worked out at 5.77.

Consider MKRLLVSLRVWMVFLMPDRKTAAAAVY, for which the AmyQ secretion efficiency is 6.21.

In the case of MKRLRRKRKKGIMLLTFAPSAFAKQD, the AmyQ secretion efficiency was found to be 7.07.

Sequence MKRLRRKRRRWMVFLMNWVTPDRKTAAAAVY returned an AmyQ secretion efficiency of 6.85.

For “MKRLTLVCSIVFILEDLFYDLDIGTIPIQDLPVYEASAKTA”, the AmyQ secretion efficiency is 7.06.

Take MKRLTLVCSIVFILFILFYDKDEASAKTA: the AmyQ secretion efficiency stood at 1.77.

With MKRLTLVCSIVFILFILFYDLKIGTDEASAKTA, the AmyQ secretion efficiency amounted to 4.35.

Sequence “MKRLTLVCSIVFILFILFYDLKIGTIPIQDLPVYEESAKTA” registered an AmyQ secretion efficiency of 5.76.

“MKRLTLVCSIVFILRKLFYRLKIGTIPIQKLPVYKASAKTA” displayed an AmyQ secretion efficiency of 6.99.

The sequence MKRMCSICCAAVLLAGGAAQAEAV showed an AmyQ secretion efficiency of 3.05.

MKRMIRTLPLLIVCLAFSSFSASARAASE showed an AmyQ secretion efficiency of 2.17.

For the sequence MKRMIVRMKRPSLIVCLAFSSFSASARAASE, the AmyQ secretion efficiency worked out at 6.12.

MKRMIVRMTKKRRIVCLAFSSFSASARAASE registered an AmyQ secretion efficiency of 5.68.

As for MKRMIVRMTKRKRRRCLAFSSFSASARAASE, the AmyQ secretion efficiency amounted to 8.6.

The sequence MKRMIVRMTLMMTLPLLIVCLAFSSFSASARAASE registered an AmyQ secretion efficiency of 2.08.

In turn, MKRMIVRMTLPLLIVCLAFSDFSASARAASE displayed an AmyQ secretion efficiency of 2.61.

MKRMIVRMTLPLLIVCLAFSKDSASARAASE returned an AmyQ secretion efficiency of 1.93.

Consider MKRMIVRMTLPLLIVCLAFSKKSASARAASE, for which the AmyQ secretion efficiency turned out to be 7.39.

MKRMIVRMTLPLLIVCLAFSSFSASAPVGARAASE displayed an AmyQ secretion efficiency of 2.02.

Regarding MKRMIVRMTLPLLIVCLAFSSFSASARAASF, the AmyQ secretion efficiency is 1.55.

The sequence MKRMIVRMTLPLLIVCLAFSSFSASARAEEE showed an AmyQ secretion efficiency of 3.68.

MKRMIVRMTLPLLIVCLAFSSFSASARCASE gave an AmyQ secretion efficiency of 4.35.

On to MKRMIVRMTLPLLIVCLAFSSFSASARNASE, for which the AmyQ secretion efficiency is 3.81.

Turning to MKRMIVRMTLPLLIVCLAFSSFSASARVASE, the AmyQ secretion efficiency worked out at 4.86.

Sequence MKRMIVRMTLPLLIVCLAFSSFSASTRAASE registered an AmyQ secretion efficiency of 2.26.

With MKRMIVRMTLPLLIVCLAFSTSFSASARAASE, the AmyQ secretion efficiency is 2.38.

Take MKRMIVRMTTPLLIVCLAFSSFSASARAASE: the AmyQ secretion efficiency amounted to 2.03.

As to MKRNIFNNINLSLLSTLLIGIMLLTFAPSAFAKQD, the AmyQ secretion efficiency is 2.

MKRNLTITMFILVLSFLSIIVAYPIQTNASPM: the AmyQ secretion efficiency came out at 5.49.

With MKRQCYWTYQSSRQLVLLPGKALGAVD, the AmyQ secretion efficiency came to 8.11.

In turn, MKRQGKSKSYAAVILSGWFIADHQTHSQEM gave an AmyQ secretion efficiency of 7.16.

For MKRQKQKASLVLFAVVFVFAVKGAPAKAETH, the AmyQ secretion efficiency is 2.05.

MKRQKQKYLLLGILCSAAVFLIGAPSRALGAEV had an AmyQ secretion efficiency of 3.43.

The sequence MKRQRLLVSLRVWMVFLMNWVTPDRKTAAAAVY came in with an AmyQ secretion efficiency of 6.95.

Turning to MKRQSQTLSFLSIIVAYPIQTNASPM, the AmyQ secretion efficiency came out at 8.43.

The sequence MKRRFMKASLVLFAVVFVFAVKGAPAKAETH returned an AmyQ secretion efficiency of 2.6.

In turn, MKRRKKKVLTGSVLSLGLLVSASPAFATSP came in with an AmyQ secretion efficiency of 1.34.

With MKRRKNVCLTALLSVLLVAGSVPFHAEAKKP, the AmyQ secretion efficiency is 2.59.

MKRRKRRYLLLGILCSAAVFLIGAPSRALGAEV returned an AmyQ secretion efficiency of 1.61.

As for MKRRKTAYLLLGILCSAAVFLIGAPSRALGAEV, the AmyQ secretion efficiency amounted to 2.77.

MKRRKVLTGSVLSLGLLVSASPAFATSP showed an AmyQ secretion efficiency of 2.61.

The sequence MKRRLSTLLIGIMLLTFAPSAFAKQD registered an AmyQ secretion efficiency of 1.82.

Sequence MKRRRKPYTKKLALGAALTIAPLSFASAEEN had an AmyQ secretion efficiency of 6.27.

For the sequence MKRRRQRQTTLPLLIVCLAFSSFSASARAASE, the AmyQ secretion efficiency worked out at 3.83.

In turn, MKRRRRKIWTIILGALLVCCIAVAYTLTKSQAGASSS yielded an AmyQ secretion efficiency of 5.49.

Consider MKRRRRKLLSTLLIGIMLLTFAPSAFAKQD, for which the AmyQ secretion efficiency was 1.81.

MKRRRRPMRLALGAALTIAPLSFASAEEN: the AmyQ secretion efficiency was 5.86.

As for MKRRRRRFILVLSFLSIIVAYPIQTNASPM, the AmyQ secretion efficiency turned out to be 2.07.

On to MKRRRSIFITCLLITLLTMGGMIASPASAAGT, for which the AmyQ secretion efficiency amounted to 2.4.

The sequence MKRRTRYKKQVVGILLSLAFVLFVFSFSERHE showed an AmyQ secretion efficiency of 6.68.

MKRSIFITCLLITLLTMGGMIASPASAAGT registered an AmyQ secretion efficiency of 2.08.

In turn, “MKRSIMLSNIIILLVSLRVWMVFLMNWVTPDRKTAAAAVY” showed an AmyQ secretion efficiency of 6.91.

Regarding MKRSINSIFITCLLITLLTMGGMIASPASAAGT, the AmyQ secretion efficiency was found to be 1.88.

Take MKRSIRTGTYCLLITLLTMGGMIASPASAAGT: the AmyQ secretion efficiency was 3.22.

MKRSISIFITCLLITLLKRKGMIASPASAAGT showed an AmyQ secretion efficiency of 5.06.

Take MKRSISIFITCLLITLLKRKKRRASPASAAGT: the AmyQ secretion efficiency came to 6.57.
